Data on eight molecules can be found in US20240317859A1 (FOUNDATION FOR BIOMEDICAL RESEARCH AND INNOVATION AT KOBE, published 2024).

Assay [1] deals with T1, substituted human PD-1, domain #7 replaced with the corresponding amino acid sequence of mouse PD-1 (human; mouse, UniProt Q15116 25-288).
T1 construct: Human limits of domain #7 (38-48) are printed; also called PD-1 if domain #7 is replaced
T1 chain: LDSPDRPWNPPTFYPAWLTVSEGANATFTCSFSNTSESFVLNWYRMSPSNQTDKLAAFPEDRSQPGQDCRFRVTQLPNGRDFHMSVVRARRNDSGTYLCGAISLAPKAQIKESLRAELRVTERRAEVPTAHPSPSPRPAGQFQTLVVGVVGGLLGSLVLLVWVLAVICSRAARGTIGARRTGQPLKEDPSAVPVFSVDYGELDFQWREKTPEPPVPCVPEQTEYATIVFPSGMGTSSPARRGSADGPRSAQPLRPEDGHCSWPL
The assay is described as follows: flow cytometry on cells expressing substituted human PD-1. The text has this:
(§1) These sub-groups of antibodies are characterized by a common nature that they bind to domain #6 and domain #7, and are distinguished from known antibodies.
(§2) The gene of human PD-1 (wild-type) or substituted human PD-1 in which regions 1 to 8 as shown in FIG. 2A were replaced with mouse sequences and a gene of fluorescent protein such as GFP were co-expressed in a cell line (such as DO11.10 T cell hybridoma or HEK293T) by means of a vector ligating the genes with IRES sequences. The expression level of PD-1 on this cell line is correlated with the expression level of fluorescent protein such as GFP. Anti-PD-1 antibody was bound to the PD-1/GFP expressing cells, and the bound antibody was detected with a secondary antibody labeled with a different fluorescent dye. Briefly, PD-1-expressing cells were seeded in V-shaped bottom 96-well plates at 1×10⁵ cells/well. To each cell pellet, 50 μl of anti-human PD-1 antibody adjusted to 5 μg/ml was added and mixed. The mixture was incubated at 4° C. for 15 minutes. After washing, BV421-labeled anti-mouse IgG antibody or BV421-labeled anti-human IgG antibody, each adjusted to 5 μg/ml, was added in 50 μl. The mixture was incubated at 4° C. for 15 minutes. After washing, cells were suspended in 200 μl of buffer, and passed through a 70 μm filter. The fluorescence intensity of the filtrate was measured with a flow cytometer. The thus obtained fluorescence intensity can be rephrased as the binding capacity of anti-human PD-1 antibody to human PD-1 (wild-type or substituted). […] Binding characteristics to R143A point mutant or substituted Mouse PD-1 (hu38-48) were also analyzed in the same manner.

Assay [2] deals with T2, substituted human PD-1, domain #1 replaced with the corresponding amino acid sequence of mouse PD-1 (human; mouse, UniProt Q15116 25-288).
T2 construct: also called PD-1 when domain #1 is replaced
T2 chain: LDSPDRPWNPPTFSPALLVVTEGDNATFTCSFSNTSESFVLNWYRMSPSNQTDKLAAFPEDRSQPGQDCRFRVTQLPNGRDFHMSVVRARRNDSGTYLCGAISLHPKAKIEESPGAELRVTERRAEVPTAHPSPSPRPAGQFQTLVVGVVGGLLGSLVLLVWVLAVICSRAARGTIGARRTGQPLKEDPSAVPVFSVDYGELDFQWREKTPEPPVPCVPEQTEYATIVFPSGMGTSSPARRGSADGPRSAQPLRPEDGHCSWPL
The description is as above.
Source text: as §1, §2

Assay [3] deals with T3, substituted human PD-1, domain #6 replaced with the corresponding amino acid sequence of mouse PD-1 (human; mouse, UniProt Q15116 25-288).
T3 construct: Human limits of domain #6 (109-120) are printed; also called PD-1 if domain #6 is replaced
T3 chain: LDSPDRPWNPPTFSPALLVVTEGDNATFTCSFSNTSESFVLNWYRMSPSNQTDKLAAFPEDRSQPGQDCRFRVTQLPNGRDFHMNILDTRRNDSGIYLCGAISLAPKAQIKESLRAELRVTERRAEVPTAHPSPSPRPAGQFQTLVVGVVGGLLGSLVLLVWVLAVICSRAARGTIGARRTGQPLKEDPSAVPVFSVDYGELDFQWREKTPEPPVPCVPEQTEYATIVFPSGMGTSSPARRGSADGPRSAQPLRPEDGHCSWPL
The description is as above.
Source text: as §1, §2

For assay [4], the target named is Human PD-1/PDCD1 Protein (PD-1) (human, UniProt Q15116 25-167, limits assumed). The assay can be described thus: SPR, Biacore 8K; PD-1 captured by anti-His antibody, antibody in flow.
For assay [5], the target named is T4, human PD-1 (wild-type), expressed on cells (human, UniProt Q15116 25-288). The assay is described as follows: cell-based or functional assay.
Assay [6] deals with T4, human PD-1 (wild-type), expressed on …. The assay can be described thus: flow cytometry on PD-1-expressing cells.
Source text: as §2, with “After washing, cells were suspended in 200 μl of buffer, and passed through a 70 μm filter.” left out

B1: mouse HM297 (antibody, mouse IgG2a, kappa)
heavy: EVLLQQSGPELVKPGASVKIPCKASGYTFTDYNVDWVRQSHGKSLEWIGDIDPNNGGTIYNQKFKDKATLTVDKSSRTAYMELRSLTSEDTAVYYCARWRGAMDYWGQGTSVTVSSAKTTAPSVYPLAPVCGDTTGSSVTLGCLVKGYFPEPVTLTWNSGSLSSGVHTFPAVLQSDLYTLSSSVTVTSSTWPSQSITCNVAHPASSTKVDKKIEPRGPTIKPCPPCKCPAPNLLGGPSVFIFPPKIKDVLMISLSPIVTCVVVDVSEDDPDVQISWFVNNVEVHTAQTQTHREDYNSTLRVVSALPIQHQDWMSGKEFKCKVNNKDLPAPIERTISKPKGSVRAPQVYVLPPPEEEMTKKQVTLTCMVTDFMPEDIYVEWTNNGKTELNYKNTEPVLDSDGSYFMYSKLRVEKKNWVERNSYSCSVVHEGLHNHHTTKSFSRTPGK
light: DVQMTQTTSSLSASLGDRVTISCRASQDIDNYLKWYQQKPDGTVKLLIYDTSRLHSGVPSRFSGSGSGTDYSLTISNLKQEDIATYFCQQGYTLPWTFGGGTRLEIKRADAAPTVSIFPPSSEQLTSGGASVVCFLNNFYPKDINVKWKIDGSERQNGVLNSWTDQDSKDSTYSMSSTLTLTKDEYERHNSYTCEATHKTSTSPIVKSFNRNEC
notes: Mouse anti-human PD-1 monoclonal antibody (mouse IgG)
For the molecule B1, the binding result in assay [1], in assay [2] and in assay [3] was “no binding (tested: 5 µg/ml)” each time.

B2: chimeric HM268-IgG1-K322A (antibody)
heavy: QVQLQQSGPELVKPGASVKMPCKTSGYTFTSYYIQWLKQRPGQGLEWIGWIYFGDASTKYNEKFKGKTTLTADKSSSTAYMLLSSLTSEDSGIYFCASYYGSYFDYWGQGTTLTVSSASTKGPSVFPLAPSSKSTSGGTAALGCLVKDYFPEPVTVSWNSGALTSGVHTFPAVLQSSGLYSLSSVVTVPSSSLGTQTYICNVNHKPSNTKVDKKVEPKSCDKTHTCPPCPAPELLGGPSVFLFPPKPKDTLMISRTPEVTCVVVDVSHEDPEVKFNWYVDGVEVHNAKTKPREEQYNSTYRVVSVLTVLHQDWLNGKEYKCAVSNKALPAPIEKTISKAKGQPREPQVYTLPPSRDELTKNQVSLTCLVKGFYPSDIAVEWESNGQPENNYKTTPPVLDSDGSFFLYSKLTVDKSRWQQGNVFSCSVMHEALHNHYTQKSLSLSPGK
light: NIQMTQNTSSLSATLGVRVTISCRASQDISNYLNWYQQKPDGTVKLLIYSTSRLHSGIPSRFSGSGSGTDYSLTISNLEQEDIATYFCQQGSTLPFTFGGGTKLEIKRTVAAPSVFIFPPSDEQLKSGTASVVCLLNNFYPREAKVQWKVDNALQSGNSQESVTEQDSKDSTYSLSSTLTLSKADYEKHKVYACEVTHQGLSSPVTKSFNRGEC
notes: Mouse Fab region with the Fc region of human IgG1-K322A
Molecule B2 displayed an equilibrium dissociation constant (Kd) in assay [4] of less than 1.69 pM. For the same molecule, in assay [5], the “Cell-cell contact assay” value turned out to be 46.5 ng/mL.

B3: HM268-M9 (antibody, human IgG1, V domains shown)
VH: QVQLVQSGPEVKKPGASVKVVCKASGYTFTSYYIQWVRQVPGQGLEWMGWIYFGDASTKYNEKFKGRVTMTADTSTSTAYMELRSLRSDDTAVYYCASYYGSYFDYWGQGTTVTVSS
VL: DIQMTQSPSSLSASVGDRVTITCRASQDISNYLNWYQQKPGKAPKLLIYSTSRLHSGVPSRFSGSGSGTDYTLTISSLQPEDFATYYCQQGSTLPFTFGQGTKLEIK
notes: also called humanized HM268, VH ver.M / VL ver.9
In assay [4], B3 returned a Kd of 61.4 pM. Also, in assay [5], the “Cell-cell contact assay” value came out at 1430 ng/mL.

B4: humanized HM268-K8-IgG1-K322A (antibody, V domains shown)
VH: QVQLVQSGPEVKKPGASVKVVCKTSGYTFTSYYIQWLKQRPGQGLEWIGWIYFGDASTKYNEKFKGRVTMTADKSTSTAYMELRSLRSDDTAVYYCASYYGSYFDYWGQGTTVTVSS
VL: DIQMTQSPSSLSASVGDRVTITCRASQDISNYLNWYQQKPDGTVKLLIYSTSRLHSGVPSRFSGSGSGTDYTLTISSLQPEDFATYYCQQGSTLPFTFGQGTKLEIKR
In assay [4], B4 yielded a Kd of less than 3.06 pM. In addition, the “Cell-cell contact assay” value in assay [5] is 39.4 ng/mL.

B5: HM624 (antibody, V domains shown)
VH: EVLLQQSGPELVQPGTSVKIFCKASGYTFTDYNIDWVKQSHGKSHEWIGDIDPNNGGTVYNQKFKGKATLTVDKSSTTAYMELRSLTSEDTAVYYCTRWRGAMDYWGRGTSVTVSS
VL: DIQMTQTTSSLSASLGDRVTISCRASQDVSNYLNWYQQKPDGTVKLLIYDTSKLHSGVPSRFSGSGSGTDYSLTIRDPDQEDIATYFCQQGHTLPWTFGGGTKLEIRR
Regarding B5, the binding result in assay [1], in assay [2] and in assay [3] was “no binding (tested: 5 µg/ml)” throughout.

B6: mouse HM266 (antibody, mouse IgG2a, kappa, V domains shown)
VH: QVQLQQSGPELVKPGASVKMSCKASGYTFTSYYIQWVKQRPGQGLEWIGWIYPGDGSSKYNEKFKGKTTLTADKSSSTAYMLLSSLTSEDSGIYFCASYYGSSFDYWGQGTTLTVSS
VL: DIQMTQTTSSLSASLGDRVTISCRASQDISNYLNWYQQKPDGTVKFLIYYSSRLHSGVPSRFSGSGSGTDYSLTISNLEQEDIATYFCQQGSTLPFTFGGGTKLEIKR
notes: as for B1
With B6, the binding result in assay [6] is on record as “binds”.

B7: HM698 (antibody, V domains shown)
VH: EVLLQQSGPELVKPGASVKIPCKASGYTFTDYNMDWVKQSHGKSLEWIGDIDPNNGGTVYNQKFKGKASLTVDKSSSTAYMELRSLTSEDTAVYYCARWRSAMDYWGQGTSVTVSS
VL: DIQMTQTTSSLSASLGDRVTISCRASQDISNYLNWYQQKPDGTVKLLIYYTSRLHSGVPSRFSGSGSGTDYSLTISNLEQEDIATYFCQQYNTLPWTFGGGTKLEIKR
In the case of B7, the binding result in assay [1] and in assay [3] was “no binding (tested: 5 µg/ml)” each time.

B8: HM647 (antibody, V domains shown)
VH: EVLLQQSGPELVKPGASVKITCKASGYTFTDYNMDWVKQSHGKSLEWIGDIDPNNGGTVYNQKFKDKASLTVDKSSSTGYMELRSLTSEDTAVYYCARWRSAMDYWGQGTSVTVSS
VL: DIQMTQPTSSLSASLGDRVTISCRASQDISNYLNWYQQKPDGTVKLLISYTSRLHSGVPSRFSGSGSGTDYSLTISNLEQVDIATYFCQQYSTLPWTFGGGSKLEIKR
Take B8: the binding result in assay [1] and in assay [3] was “no binding (tested: 5 µg/ml)” throughout.
